Results from the nanobody polyreactivity screen of Harvey et al. (2022).

assay: yeast display, Sf9 membrane polyspecificity reagent, FACS + sequencing; frameworks hold sequencing errors
How it was run: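 A synthetic nanobody library was expressed on Saccharomyces cerevisiae BJ5465 by galactose induction for 36–48 hours. The library was stained for 1 hour at 4 °C with 10% biotinylated, detergent-solubilized Sf9 membrane reagent and enriched with streptavidin microbeads before FACS. Low and high (top ~1%) gates were set on anti-HA fluorescence for expression and streptavidin fluorescence for reagent binding, and each polyreactivity label reflects the gate of origin.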

Sequence | polyreactivity (PSR sort gate)
QVQLVESGGGLVQAGGSLRLSCAASGSTFEYYAMGWYRQAPGKERELVAAITTSGGITYYADSVKGRFTISRDNAKNTVYLQMNSLKPEDTAVYYCNADAVPLPTLVTYLYDYWGQGTQVTVSS | low polyreactivity
QVQLVESGGGLVQAGGSLRLSCAASGSTFEYYAMGWYRQAPGKERELVATISIDGRTNYADSVKGRFTISRDNAKNTVYLQMNSLKPEDTAVYYCAADTNWSPGYIMYYRSDYWGQGTQVTVSS | low polyreactivity
QVQLVESGGGLVQAGGSLRLSCAASGSTFEYYAMGWYRQAPGKERELVAVITNGGSTNYADSVKGRFTISRDNAKNTVYLQKNSLKPEDTAVYYCNAERRVFYYFDYDFWGLGTQVTVSS | low polyreactivity
QVQLVESGGGLVQAGGSLRLSCAASGSTFFDYAMGWYRQAPGKVRELVAVISDGGTTTYADSVKGRFTISRDNAKNTVYLQMNSLKPEDTAVYYCAAENQDGLLVILGGYGYWGQGTQVTVSS | low polyreactivity
QVQLVESGGGLVQAGGSLRLSCAASGSTFFFNAMGWYRQAPGKERELVAGISSSGGSTHYADSVKGRFTISRDNAKNTVYLQMNSLKPEDTAVYYCNAQQYLPSEGDYWGQGTQVTVSS | low polyreactivity
QVQLVESGGGLVQAGGSLRLSCAASGSTFFGNTMGWYRQAPGKERELVATITRRGGSTYYADSVKGRFTMSRDNAKNTVYLQMNSLKPEDTAVYYCANRGPYTKYDYWGQGTQVTVSS | low polyreactivity
QVQLVESGGGLVQAGGSLRLSCAASGSTFFGYDMGWYRQAPGTERELVATINSGGSTYYADSVKGRFTISRDNAKYTVYLQMNSLKPEDTAVYYCAARPSYLYPFDRTGEYDYWGQGTQVTVSS | high polyreactivity
QVQLVESGGGLVQAGGSLRLSCAASGSTFFHYAMGWYRQAPGKERELVAAISTGGTTYYADSVKGRFTISRDNAKNTVYLQMNSLKPEDSAVYYCAAEAYGLSGLYYYWGQCTQVTVSS | high polyreactivity
QVQLVESGGGLVQAGGSLRLSCAASGSTFFINAMGWYRQGPGKERELVASISYSGGSTYYAHSVKGRFTISRDNAKNTVYLQLNSLKPEDTAVYYCNADVRVFLHYYKYNYWGQGTQVTVSS | low polyreactivity
QVQLVESGGGLVQAGGSLRLSCAASGSTFFLNAMGWYRQAPGKERELVAAISYSDSGTNYADSVKGRFTISRDNAKNTVYLQMNSLKPEDTAVYYCATAVRPWYVTSGNYWGQGTQVTVSS | low polyreactivity
QVQLVESGGGLVQAGGSLRLSCAASGSTFFLYAMGWYRQAPGKERELVAAISSGGSTNYADSVKGRFTISRDNAKNTVYLQMNSLKPEDTAVYYCAADAVRSHDYWGQGTQVTVSS | low polyreactivity
QVQLVESGGGLVQAGGSLRLSCAASGSTFFLYAMGWYRQAPGKERELVAAITWRSGRTYYADSVKGRFTISRDNAKNTVYLQMNSLKPEDTAVYYCAADYVLGEVVRYDYWGQGTQVTVSS | high polyreactivity
QVQLVESGGGLVQAGGSLRLSCAASGSTFFPYAMGWYRQAPGKERELVAAITSGGRTKYADSVKGRFTISRDNAMNTVYLQMNSLKPEDTAVYYCAARGLIKEYGGPYRRFGYWGQGTQVTVSS | high polyreactivity
QVQLVESGGGLVQAGGSLRLSCAASGSTFFPYAMGWYRQAPGKERELVAGISSDGGTSYADSVKGRFTISRDNAKNTVYLQMNSLKPEDTAVYYCAALQADRGGWYDYWGQGTQVTVSS | low polyreactivity
QVQLVESGGGLVQAGGSLRLSCAASGSTFFPYAMGWYRQAPGKERELVATINYSGGGTYYADSVKGRFTISRDNAKNTVYLQMNSLKPEDTAVYYCAKTLARFDRGYYWGQGTQVTVSS | low polyreactivity
QVQLVESGGGLVQAGGSLRLSCAASGSTFFSYAMGWYRQAPGKEREFVAAISWIDDGTYYADSVKGRFTISRDNAKNTVYLQMNSLKPEDTAVYYCAADIGAYRTWDYEYWGQGTQVTVSS | low polyreactivity

Sequence | polyreactivity (PSR sort gate)
QVQLVESGGGLVQAGGSLRLSCAASGSTFFTNAMAWYRQSPGKERELVASISFSGGRTYYADSVKGRFTISRDNAKNTVYLQMNSLKPEDTAVYYCAARRYRYTRYDYWGQGTQVTVSS | high polyreactivity
QVQLVESGGGLVQAGGSLRLSCAASGSTFFTNAMGWYRQAPGKERELVAAITINDGSTFYADSVKGRFTITRDNAKNTVYLQMNSLKPEDTAVYYCNADGVDLYDYWGQGTQVTVSS | low polyreactivity
QVQLVESGGGLVQAGGSLRLSCAASGSTFFTNVMGWYRQAPGKERELVAVIRWRGSDTYYADSVKGRFTISRDNAKNTVYLQMNSLKPEDTAVYYSNAKESFYPTTGEQGYSYDYWGQGTQVTVSS | low polyreactivity
QVQLVESGGGLVQAGGSLRLSCAASGSTFFTYTMGWYRQAPGKERELVARITSSGGSTYYADSVKGRFTISRDNAKNTVYLQMNSLKPEDTAVYYCNARYYSHPTYDYWGQGTQVTVSS | high polyreactivity
QVQLVESGGGLVQAGGSLRLSCAASGSTFFVANAMGWYRQSPGKERELVAAISPSGGSTYYADSVKGRFTISRDNAKNTVYLQMNSLKPEDTAVYYCATSVRRFTRRYDYWGQGTQVTVSS | high polyreactivity
QVQLVESGGGLVQAGGSLRLSCAASGSTFFWYAMGRYRQAPGKERELVAAISKTGGSTYYADSVKGRFTISRDNAKNTFYLQMNSLKPEDTAVYYCNAVPYASKAARSFDYWGQGTQVTVSS | low polyreactivity
QVQLVESGGGLVQAGGSLRLSCAASGSTFFWYGMGWYRQAPGKERELVAAISSDGSTYYADSVKGRFTISRDNAKNTVYLQMNSLKPEDTAVYYCAAQIPWYIYPGSYTMDYWGQGTQVTVSS | low polyreactivity
QVQLVESGGGLVQAGGSLRLSCAASGSTFFYNAMGWYRQAPGKERELVAAMSLSGGSITYYADSVKGRFTISRDNANNTVYLQMNSLKPEDTAVYYCAADSQATSYGLDYWGQGTQVTVSS | low polyreactivity
QVQLVESGGGLVQAGGSLRLSCAASGSTFFYNAMGWYRQAPGKERELVASINDRAGRTYYADSVKGRFTISRDNAKNTVYLQMNSLKPEDTAVYYCAAEPWYKFDYDYWGQGTQVTVSS | low polyreactivity
QVQLVESGGGLVQAGGSLRLSCAASGSTFFYYAMGWYRKAPGKERDFVAAISKSGGRTYYADTVKGRFTISRDNAKNTVYLQMNSLKPEDTAVYYCAAYYEYRRDYWGQCTQVTVSS | high polyreactivity
QVQLVESGGGLVQAGGSLRLSCAASGSTFFYYTMGWYRQAPGKERELVAAISRGGRTNYADSVKGRFTISRDNAKNTVYLLMNSLKREDTAVFYCIADAWSFRQYWGRYDYWGQGTQVTVSS | high polyreactivity
QVQLVESGGGLVQAGGSLRLSCAASGSTFGANALGWYRQAPGKERELVAAITGGSTFYADSVKGRFTISRDNAKNTVYLQMNSLKPEDTSVYYCAVDYTYSYVDYWSEYDYWGQGTQVTVSS | low polyreactivity
QVQLVESGGGLVQAGGSLRLSCAASGSTFGANAMGWYRQAPGKEREFVAAISRSGVRTYYADSVKGRFTISRDNAKNTVYLKLNSLKPEDTAVYYCAADGYWWTYTRYDYWGQGTQVTVSS | low polyreactivity
QVQLVESGGGLVQAGGSLRLSCAASGSTFGANAMGWYRQAPGKEREFVAAISRSGVRTYYADSVKGRFTISRDNAKNTVYLQMNSLKPEDTAVYYCAADGYWWTYKGQYDYWGQGTQVTVSS | low polyreactivity
QVQLVESGGGLVQAGGSLRLSCAASGSTFGANPMGWYRQAPGKEREFVAAISGSGTTTYYADSVKGRFTISRDNAKNTVYLQMNSLKTEDTAVYYCAKTRKAHWLEYWGQGTQVTVSS | low polyreactivity
QVQLVESGGGLVQAGGSLRLSCAASGSTFGDNAMGWYRQAPGKERELVAVITSDTSTYYADSVKGRFTISRDNAKNTVYLQMNSLKPEDTAVYYCAADWGGLWFWYEYWGQGTQVTVSS | low polyreactivity
